Results reported in US7629135B2, “Toll-like receptor agonists and antagonists and methods of use thereof” (The Board of Trustees of the University of Illinois, priority 2006, dated 2009).

Columns and labels:
[1] = system: NF-κB; experiment: Electrophoresis mobility shift assay (EMSA) with BMDM nuclear extracts; assay type: cell-based, mouse; settings: SAA-stimulated BMDM, after 30 min
Description: To investigate the mechanism for SAA-induced G-CSF production, the level of G-CSF transcript in SAA-stimulated BMDM was determined. […] The induction of G-CSF transcript peaked at 4 h after SAA stimulation. Since transcription of the G-CSF gene involves NF-κB binding to the RelA/p65 consensus element in the CK-1 site of the G-CSF promoter (Dunn et al., 1994; Hareng and Hartung, 2002), the role of NF-κB in SAA-stimulated G-CSF expression was determined. […] Using oligonucleotide probe based on the sequence of the CK-1 site (−161 to −152 in the G-CSF promoter), a protein •DNA complex (FIG. 2C) was identified. […] Inclusion of a RelA/p65 antibody blocking peptide in the assay abrogated the immunoprecipitation (FIG. 2D).
EMSA: Nuclear extracts were isolated using the method of Dignam et al (Dignam et al., 1983) with minor modifications. For each sample, 5×10^6 cells were used. Radiolabeling of the NF-κB probe and CK-1 probe, binding reactions, electrophoresis, and autoradiography were conducted as described previously (He et al., 2003).

[2] = system: Human peripheral blood monocytes (PBMC); experiment: SAA-induced G-CSF secretion in human PBMC (ELISA); assay type: cell-based; settings: SAA 1 μM
Description: SAA induces G-CSF expression in monocytes and macrophages: To determine whether SAA plays a role in neutrophilia, the ability of SAA to stimulate G-CSF expression was investigated. Human peripheral blood monocytes (PBMC) were incubated with SAA, and the concentration of secreted G-CSF in the culture medium was determined at various time points after stimulation. The concentration of SAA used in this experiment (1 μM) was well within its physiological range (0.08 μM to 80 μM). […] Since subsequent studies used mice for measurement of G-CSF secretion and neutrophilia, SAA-induced G-CSF expression in mouse bone marrow derived macrophages (BMDM) was determined, of which 98% were F4/80^+ CD14^+ based on flow cytometry analysis. […] The basal level of G-CSF remained stable at approximately 42 pg/ml/10^6 cells over the entire course of incubation.
Cell preparation and culture: Human peripheral blood monocytes were prepared from fresh, heparinized venous blood by Ficoll-Hypaque density-gradient centrifugation. […]
Measurement of G-CSF expression: To measure the secreted G-CSF from human monocytes and mouse macrophages in vitro, cells were placed in serum-free DMEM medium and stimulated with the indicated ligands. […] Real-time quantitative PCR was performed on a ABI PRISM 7000 Sequence Detection System (Applied Biosystems) as described previously (He et al., 2006). […]

B1: SAA: Recombinant human SAA purchased from PeproTech; major acute-phase protein of 104 amino acids (protein, UniProt P0DJI8 19-122, looked up)
Serum amyloid A-1 protein: RSFFSFLGEAFDGARDMWRAYSDMREANYIGSDKYFHARGNYDAAKRGPGGAWAAEVITDARENIQRFFGHGAEDSLADQAANEWGRSGKDPNHFRPAGLPEKY
With B1 the “formation of NF-κB•DNA complex” value [1] was “stimulated the formation of NF-κB•DNA complex”, the “secreted G-CSF” value ([2]; after 4 h of stimulation) was 2,546 pg/ml/10^6 cells and the “secreted G-CSF” value ([2]; end of 24 h incubation) was 7,340 pg/ml/10^6 cells.
